Data on 2 molecules can be found in PMC8467012.

For the test, the target named is ErbB3 receptor on cancer cells (human (endogenous in MCF-7, SK-BR-3, BT-474, Hep G2)) (UniProt P21860).
Sequence of ErbB3 receptor on cancer cells (human (endogenous in MCF-7, SK-BR-3, BT-474, Hep G2)) (P21860 20-1342): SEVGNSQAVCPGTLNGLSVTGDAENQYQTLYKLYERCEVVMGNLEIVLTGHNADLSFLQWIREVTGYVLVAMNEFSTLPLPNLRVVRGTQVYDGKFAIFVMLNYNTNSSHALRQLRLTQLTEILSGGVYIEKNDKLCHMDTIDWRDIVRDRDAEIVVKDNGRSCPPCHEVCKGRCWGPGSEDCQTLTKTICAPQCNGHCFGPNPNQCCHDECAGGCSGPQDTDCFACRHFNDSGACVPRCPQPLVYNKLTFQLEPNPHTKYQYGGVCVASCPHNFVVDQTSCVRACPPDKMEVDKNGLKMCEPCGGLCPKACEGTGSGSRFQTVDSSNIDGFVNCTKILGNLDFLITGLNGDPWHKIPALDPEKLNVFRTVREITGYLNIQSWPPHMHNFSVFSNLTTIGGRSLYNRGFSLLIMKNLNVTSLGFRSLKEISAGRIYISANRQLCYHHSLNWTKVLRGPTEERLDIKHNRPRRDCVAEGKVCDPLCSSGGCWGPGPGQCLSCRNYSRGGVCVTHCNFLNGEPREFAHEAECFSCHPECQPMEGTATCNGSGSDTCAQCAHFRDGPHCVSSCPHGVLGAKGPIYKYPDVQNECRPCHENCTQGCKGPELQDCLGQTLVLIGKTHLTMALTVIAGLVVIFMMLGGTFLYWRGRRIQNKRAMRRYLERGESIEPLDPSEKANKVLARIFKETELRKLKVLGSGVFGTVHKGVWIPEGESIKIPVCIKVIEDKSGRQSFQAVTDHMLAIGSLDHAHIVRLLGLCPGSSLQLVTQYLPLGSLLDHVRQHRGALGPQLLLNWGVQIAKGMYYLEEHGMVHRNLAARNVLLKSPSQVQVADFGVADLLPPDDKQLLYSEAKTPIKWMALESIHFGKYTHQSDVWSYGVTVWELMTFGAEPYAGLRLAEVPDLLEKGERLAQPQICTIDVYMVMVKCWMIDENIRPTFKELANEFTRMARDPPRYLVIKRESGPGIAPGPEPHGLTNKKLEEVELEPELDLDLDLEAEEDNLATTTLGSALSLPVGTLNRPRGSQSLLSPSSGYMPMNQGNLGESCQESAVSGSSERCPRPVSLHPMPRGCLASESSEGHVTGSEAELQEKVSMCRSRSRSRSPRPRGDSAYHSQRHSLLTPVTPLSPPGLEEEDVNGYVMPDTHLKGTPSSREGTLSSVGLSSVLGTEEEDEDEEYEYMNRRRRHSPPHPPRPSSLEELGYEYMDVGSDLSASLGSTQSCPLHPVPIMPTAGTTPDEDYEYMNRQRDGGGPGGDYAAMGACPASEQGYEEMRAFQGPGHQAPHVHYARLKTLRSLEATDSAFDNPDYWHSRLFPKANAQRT

B1: BCD090-M2 (VHH)
VHH: QVQLVQSGGGLVQAGGSLRLSCAFSGRTFSMYTMGWFRQAPGKEREFVAANRGRGLSPDIADSVNGRFTISRDNAKNTLYLQMDSLKPEDTAVYYCAADLQYGSSWPQRSSAEYDYWGQGTTVTVSS
As to B1, the EC50 of inhibition of heregulin-driven proliferation of MCF-7 cells (MTS, 5 days, 50 ng/mL heregulin-1β); blocks heregulin binding to ErbB3 came out at 25 µg/mL and the EC50 of inhibition of proliferation of SK-BR-3 cells (MTS, 5 days, 50 ng/mL heregulin-1β); blocks heregulin binding to ErbB3 came to 3 µg/mL.

B2: BCD090-P1 (VHH)
VHH: EVQLVQSGGGLVQPGGSLRLSCAASGRTSSKYAMGWFRQAPGKGTEFVATISWSDGSTYYADSVEGRFTISRDNAKNTVYLQMNSLKPEDTAVYYCAAAVDVLAGTFEYEYDYWGQGTLVTVSS
For B2, the EC50 of inhibition of heregulin-driven proliferation of MCF-7 cells (MTS, 5 days, 50 ng/mL heregulin-1β) was determined as 0.1 µg/mL and the EC50 of inhibition of proliferation of SK-BR-3 cells (MTS, 5 days, 50 ng/mL heregulin-1β) came to 15 µg/mL.
